Data on 4 molecules can be found in publication PMC6451096, “Molecular basis for transfer RNA recognition by the double-stranded RNA-binding domain of human dihydrouridine synthase 2”.

Series [1] addresses T1, hDus2 full length (Homo sapiens, UniProt Q9NX74 1-493). Put plainly: EMSA; same affinity as for full tRNA; value only in Fig S12e; EMSA: 50 mM Tris-HCl pH 8, 10% glycerol, 5 mM DTT, 150 mM ammonium acetate, 1 uM tRNALys3, 20 min room temperature; 6% native PAGE at 4 C. The following applies: protein: recombinant; tRNA fold, anticodon stem removed. (A gel shift assay detects complexes by their altered migration in electrophoresis.)

The target of series [2] is T2, hDus2 dsRBD WT (Homo sapiens, UniProt Q9NX74 339-451).
T2 sequence: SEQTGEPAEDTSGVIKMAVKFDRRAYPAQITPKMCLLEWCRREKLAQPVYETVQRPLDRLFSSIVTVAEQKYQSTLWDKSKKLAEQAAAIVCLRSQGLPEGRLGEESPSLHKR
Kind of series: X-ray crystallography; 20 mM MgCl2 in reservoir; EMSA: 50 mM Tris-HCl pH 8, 10% glycerol, 5 mM DTT, 150 mM ammonium acetate, 1 uM tRNALys3, 20 min room temperature; 6% native PAGE at 4 C. The following applies: protein: recombinant.

The target in series [3] is T3, hDus2 dsRBD R361A-R362A (Homo sapiens, UniProt Q9NX74 339-451, R361A;R362A).
T3 sequence: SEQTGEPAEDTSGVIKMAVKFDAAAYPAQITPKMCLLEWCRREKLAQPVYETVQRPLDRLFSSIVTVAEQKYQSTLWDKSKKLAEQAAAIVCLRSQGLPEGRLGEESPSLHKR
Put plainly: EMSA; EMSA: 50 mM Tris-HCl pH 8, 10% glycerol, 5 mM DTT, 150 mM ammonium acetate, 1 uM tRNALys3, 20 min room temperature; 6% native PAGE at 4 C. Conditions: protein: recombinant.

The target in another series is T4, hDus2 dsRBD R361A (Homo sapiens, UniProt Q9NX74 339-451, R361A).
T4 sequence: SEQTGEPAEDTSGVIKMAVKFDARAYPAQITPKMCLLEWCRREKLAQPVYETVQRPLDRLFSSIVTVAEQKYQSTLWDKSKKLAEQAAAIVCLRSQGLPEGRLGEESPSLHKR
The series is described as above. The following applies: protein: recombinant.

Series [4] concerns the target T3, hDus2 dsRBD R361A-R362A. The series is described as above. Conditions: protein: recombinant; label: 15N for tRNA-observed NMR; tRNA fold.
A further series has as its target T5, hDus2 dsRBD K419A-K420A (Homo sapiens, UniProt Q9NX74 339-451, K419A;K420A).
T5 sequence: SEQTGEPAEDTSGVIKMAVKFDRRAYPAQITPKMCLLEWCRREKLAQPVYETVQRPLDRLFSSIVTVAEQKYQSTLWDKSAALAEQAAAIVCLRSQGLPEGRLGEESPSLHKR
The description is as above. The following applies: protein: recombinant; label: 15N for tRNA-observed NMR; tRNA fold.

For series [5], the target named is T2, hDus2 dsRBD WT. Kind of series: EMSA; apparent Kd shown only in histogram; EMSA: 50 mM Tris-HCl pH 8, 10% glycerol, 5 mM DTT, 150 mM ammonium acetate, 1 uM tRNALys3, 20 min room temperature; 6% native PAGE at 4 C. Conditions: protein: recombinant; label: 15N for tRNA-observed NMR; tRNA fold.
In another series the target is T6, hDus2 dsRBD R397A (Homo sapiens, UniProt Q9NX74 339-451, R397A).
T6 sequence: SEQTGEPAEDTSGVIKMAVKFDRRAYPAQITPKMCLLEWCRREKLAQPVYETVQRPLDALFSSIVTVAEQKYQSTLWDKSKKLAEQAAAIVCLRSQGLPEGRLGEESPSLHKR
Kind of series: EMSA; EMSA: 50 mM Tris-HCl pH 8, 10% glycerol, 5 mM DTT, 150 mM ammonium acetate, 1 uM tRNALys3, 20 min room temperature; 6% native PAGE at 4 C. The following applies: protein: recombinant; label: 15N for tRNA-observed NMR; tRNA fold.

In a further series the target is T7, hDus2 dsRBD K419A (Homo sapiens, UniProt Q9NX74 339-451, K419A).
T7 sequence: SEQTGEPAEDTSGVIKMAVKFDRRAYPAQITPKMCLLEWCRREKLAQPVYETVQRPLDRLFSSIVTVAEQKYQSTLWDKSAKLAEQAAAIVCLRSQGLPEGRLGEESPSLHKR
The description is as above. The following applies: protein: recombinant; label: 15N for tRNA-observed NMR; tRNA fold.

The target in a further series is T8, hDus2 dsRBD K420A (Homo sapiens, UniProt Q9NX74 339-451, K420A).
T8 sequence: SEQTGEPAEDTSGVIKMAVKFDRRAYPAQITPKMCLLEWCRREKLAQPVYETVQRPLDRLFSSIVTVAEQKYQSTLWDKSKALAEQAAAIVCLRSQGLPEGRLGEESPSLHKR
The series is described as above. The following applies: protein: recombinant; label: 15N for tRNA-observed NMR; tRNA fold.

The next series addresses T9, hDus2 dsRBD K371A (Homo sapiens, UniProt Q9NX74 339-451, K371A).
T9 sequence: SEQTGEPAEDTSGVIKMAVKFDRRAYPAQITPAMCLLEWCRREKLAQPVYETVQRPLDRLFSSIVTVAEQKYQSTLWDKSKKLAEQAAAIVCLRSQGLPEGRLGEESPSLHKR
The series is described as above. The following applies: protein: recombinant; label: 15N for tRNA-observed NMR; tRNA fold.

Another series addresses T10, hDus2 dsRBD R362A (Homo sapiens, UniProt Q9NX74 339-451, R362A).
T10 sequence: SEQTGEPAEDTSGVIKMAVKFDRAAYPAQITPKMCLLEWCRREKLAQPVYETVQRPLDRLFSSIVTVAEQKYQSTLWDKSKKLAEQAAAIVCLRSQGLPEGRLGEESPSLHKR
Put plainly: EMSA; no impact of mutation; EMSA: 50 mM Tris-HCl pH 8, 10% glycerol, 5 mM DTT, 150 mM ammonium acetate, 1 uM tRNALys3, 20 min room temperature; 6% native PAGE at 4 C. Conditions: protein: recombinant; label: 15N for tRNA-observed NMR; tRNA fold.

The target of series [6] is T1, hDus2 full length. Kind of series: SEC-MALLS; 1:1 protein:RNA; EMSA: 50 mM Tris-HCl pH 8, 10% glycerol, 5 mM DTT, 150 mM ammonium acetate, 1 uM tRNALys3, 20 min room temperature; 6% native PAGE at 4 C. Conditions: protein: recombinant; label: 15N for tRNA-observed NMR; tRNA fold.
In series [7] the target is T1, hDus2 full length. Put plainly: EMSA; same affinity as for deltaACS; value only in Fig S12e; EMSA: 50 mM Tris-HCl pH 8, 10% glycerol, 5 mM DTT, 150 mM ammonium acetate, 1 uM tRNALys3, 20 min room temperature; 6% native PAGE at 4 C. The following applies: protein: recombinant; tRNA fold.

T1 sequence (Q9NX74 whole entry): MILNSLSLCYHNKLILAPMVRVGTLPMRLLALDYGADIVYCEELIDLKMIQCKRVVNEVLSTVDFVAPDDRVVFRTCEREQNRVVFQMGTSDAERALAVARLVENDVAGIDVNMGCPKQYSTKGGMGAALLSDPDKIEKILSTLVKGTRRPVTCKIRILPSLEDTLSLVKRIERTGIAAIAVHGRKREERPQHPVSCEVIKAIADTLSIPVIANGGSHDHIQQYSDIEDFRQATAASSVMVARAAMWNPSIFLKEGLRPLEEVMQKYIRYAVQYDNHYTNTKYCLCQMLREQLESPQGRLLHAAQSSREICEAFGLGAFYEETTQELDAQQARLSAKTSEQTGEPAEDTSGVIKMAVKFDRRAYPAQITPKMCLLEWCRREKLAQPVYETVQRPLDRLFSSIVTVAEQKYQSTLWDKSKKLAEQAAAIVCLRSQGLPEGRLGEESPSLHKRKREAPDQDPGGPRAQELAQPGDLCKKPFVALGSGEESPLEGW

B1: tRNAPhe-deltaACS transcript (structured_RNA)
RNA: GCGGAUUUAGCUCAGUUGGGAGAGCGCCGAAGGGAGGUCCUGUGUUCGAUCCACAGAAUUCGCACCA
In the case of B1, the binding result with hDus2 full length [1] is given as “binds”.

B2: 11-nt palindromic dsRNA (dsRNA)
RNA 1: CGAACUUCGCG
RNA 2: CGAACUUCGCG
B2: the binding result in the series with hDus2 dsRBD WT [2] is given as “binds”. For the same molecule, the figures for the binding signal with hDus2 dsRBD R361A-R362A [3] and in the series with hDus2 dsRBD R361A were ~1 affinity relative to same mutant for tRNA (similar) and ~3.7 fold lower affinity than same mutant for tRNA, respectively.

B3: human tRNALys3 (structured_RNA)
RNA: GCCCGGAUAGCUCAGUCGGUAGAGCAUCAGACUUUUAAUCUGAGGGUCCAGGGUUCAAGUCCCUGUUCGGGCGCCA
modifications: modified in vivo in E. coli (Psi39 mentioned)
On to B3, for which the binding signal in the series with hDus2 dsRBD R361A-R362A [4] is ~6 fold lower affinity than WT; with hDus2 dsRBD K419A-K420A, ~17 fold lower affinity than WT; with hDus2 dsRBD R397A, ~2 fold lower affinity than WT; with hDus2 dsRBD K419A, > 4 fold lower affinity than WT; in the series with hDus2 dsRBD K420A, > 4 fold lower affinity than WT; with hDus2 dsRBD K371A, ~8 fold lower affinity than WT. In addition, the binding result with hDus2 dsRBD WT [5], with hDus2 dsRBD R362A and in the series with hDus2 full length [6] was “binds” each time.

B4: tRNAPhe transcript (structured_RNA)
RNA: GCGGAUUUAGCUCAGUUGGGAGAGCGCCAGACUGAAGAUCUGGAGGUCCUGUGUUCGAUCCACAGAAUUCGCACCA
Consider B4, for which the binding result with hDus2 full length [7] is “binds”.
